The supplement of paper PMC9732359
± gives the uncertainty stated by the source.

Test: protein stability index of a GFP-peptide fusion (yeast GPS) (PSI 1-4); higher = more stable; sorted into four equal gates, so the index is relative within each strain
Summary of the method: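 Tiled yeast protein peptides of 17 residues were each joined downstream of GFP, on plasmids that also express Cherry. The pooled library was maintained in yeast, and mid-log cultures in leucine-free medium were sorted into four equal gates on the GFP/Cherry ratio. Plasmids from every gate were amplified by PCR and sequenced on Illumina, with barcodes linking reads to strains. The protein stability index of a peptide is its gate-number-weighted read frequency summed over the gates.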

MKLNILDERFASRVALN [IRR1]
protein stability index (doa10∆): 1.54 ± 0.051
protein stability index (pdr5∆): 2.31 ± 0.062
protein stability index (san1∆): 2.17 ± 0.11
protein stability index (ubr1∆): 2.03 ± 0.054

MKLTDLLSLINSTHLLP [SNF12]
protein stability index (doa10∆): 2.56 ± 0.052
protein stability index (pdr5∆): 2.57 ± 0.04
protein stability index (san1∆): 2.94 ± 0.05
protein stability index (ubr1∆): 2.58 ± 0.036

MKNPDVEFCGYSIPHPS [RPC19]
protein stability index (doa10∆): 2.81 ± 0.082
protein stability index (pdr5∆): 3.11 ± 0.064
protein stability index (san1∆): 2.94 ± 0.049
protein stability index (ubr1∆): 3.04 ± 0.085

MKTNVHTQANEPNSAKK [RGR1]
protein stability index (doa10∆): 3.02 ± 0.11
protein stability index (pdr5∆): 3.14 ± 0.089
protein stability index (san1∆): 3.06 ± 0.086
protein stability index (ubr1∆): 3.24 ± 0.11

MKTVQSPMGAQPSYNSA [GAL11]
protein stability index (doa10∆): 3.37 ± 0.26
protein stability index (pdr5∆): 2.91 ± 0.1
protein stability index (san1∆): 2.56 ± 0.21
protein stability index (ubr1∆): 2.65 ± 0.081

MKYDIFAKFIHHIHHFE [IRR1]
protein stability index (doa10∆): 2.03 ± 0.079
protein stability index (pdr5∆): 2.54 ± 0.055
protein stability index (san1∆): 2.46 ± 0.065
protein stability index (ubr1∆): 2.74 ± 0.05

MLAAQDVAAKCKEVGIT [RPS14A]
protein stability index (doa10∆): 2.38 ± 0.057
protein stability index (pdr5∆): 2.38 ± 0.061
protein stability index (san1∆): 2.07 ± 0.068
protein stability index (ubr1∆): 2.04 ± 0.041

MLDKLMVTSIRSTPNYI [MED6]
protein stability index (doa10∆): 2.4 ± 0.064
protein stability index (pdr5∆): 2.52 ± 0.061
protein stability index (san1∆): 2.43 ± 0.098
protein stability index (ubr1∆): 2.66 ± 0.05

MLHKVLENKADPLVSLM [RPT6]
protein stability index (doa10∆): 2.28 ± 0.08
protein stability index (pdr5∆): 2.15 ± 0.063
protein stability index (san1∆): 2.71 ± 0.058
protein stability index (ubr1∆): 2.23 ± 0.066

MLKPNIIFQQLLFWTDP [YCG1]
protein stability index (doa10∆): 2.42 ± 0.099
protein stability index (pdr5∆): 2.28 ± 0.076
protein stability index (san1∆): 1.21 ± 0.093
protein stability index (ubr1∆): 1.68 ± 0.12

MLKRFFPGVKGLVHDLC [SMC1]
protein stability index (san1∆): 1.95 ± 0.14
protein stability index (ubr1∆): 2.42 ± 0.17

MLLCVSYFLQERYFDCC [PCI8]
protein stability index (doa10∆): 1.19 ± 0.091
protein stability index (pdr5∆): 1.26 ± 0.058
protein stability index (san1∆): 1.55 ± 0.1
protein stability index (ubr1∆): 1.3 ± 0.092

MLMPKEDRNKIHQYLFQ [RPS10A]
protein stability index (doa10∆): 2.27 ± 0.057
protein stability index (pdr5∆): 2.58 ± 0.057
protein stability index (san1∆): 2.49 ± 0.079
protein stability index (ubr1∆): 2.71 ± 0.047

MLQISDDNEMTRDDLLT [RRI2]
protein stability index (doa10∆): 2.93 ± 0.1
protein stability index (pdr5∆): 3.27 ± 0.1
protein stability index (san1∆): 3.17 ± 0.038
protein stability index (ubr1∆): 3.1 ± 0.056

MLQMKGKLLRNYTQNID [SIR2]
protein stability index (doa10∆): 2.91 ± 0.076
protein stability index (pdr5∆): 2.36 ± 0.11
protein stability index (san1∆): 2.78 ± 0.086
protein stability index (ubr1∆): 2.02 ± 0.058

MLSKTKVYYFQGGNNEL [RPL30]
protein stability index (doa10∆): 2.87 ± 0.15
protein stability index (pdr5∆): 3.17 ± 0.26
protein stability index (san1∆): 2.99 ± 0.14
protein stability index (ubr1∆): 3.4 ± 0.25

MMTGAEQDPYSNASQMG [RPB3]
protein stability index (doa10∆): 2.68 ± 0.14
protein stability index (pdr5∆): 2.44 ± 0.13
protein stability index (san1∆): 2.21 ± 0.2
protein stability index (ubr1∆): 2.92 ± 0.1

MNAGGRNVTIQLENADT [RPN2]
protein stability index (pdr5∆): 2.44 ± 0.18
protein stability index (san1∆): 1.62 ± 0.29

MNERDWRILKEDYAIVT [PRP28]
protein stability index (doa10∆): 3.42 ± 0.22
protein stability index (pdr5∆): 3.16 ± 0.23

MNIPQRQFSNEEVNRCY [SNF2]
protein stability index (doa10∆): 2.44 ± 0.1
protein stability index (pdr5∆): 3 ± 0.14
protein stability index (san1∆): 2.96 ± 0.26
protein stability index (ubr1∆): 3 ± 0.065

MNLDFDIEEGPITSKSW [MCD1]
protein stability index (doa10∆): 2.85 ± 0.15
protein stability index (pdr5∆): 3.16 ± 0.093
protein stability index (san1∆): 3.17 ± 0.072
protein stability index (ubr1∆): 3.49 ± 0.18

MNLKKELQGYIELSVPD [SRB5]
protein stability index (doa10∆): 2.6 ± 0.21
protein stability index (pdr5∆): 3.26 ± 0.14
protein stability index (san1∆): 3.15 ± 0.075
protein stability index (ubr1∆): 2.83 ± 0.1

MPDMNEMMKMMQDPQMQ [SRP54]
protein stability index (doa10∆): 3.22 ± 0.19
protein stability index (pdr5∆): 3.45 ± 0.21
protein stability index (san1∆): 3.5 ± 0.083
protein stability index (ubr1∆): 3.33 ± 0.084

MPFNDQGIVPDIIMNPH [RET1]
protein stability index (doa10∆): 2.71 ± 0.075
protein stability index (pdr5∆): 2.92 ± 0.059
protein stability index (san1∆): 2.87 ± 0.052
protein stability index (ubr1∆): 3.09 ± 0.042

MPNSSLQPFYSQPTAAG [DSN1]
protein stability index (doa10∆): 2.33 ± 0.076
protein stability index (pdr5∆): 2.71 ± 0.067
protein stability index (san1∆): 2.44 ± 0.056
protein stability index (ubr1∆): 2.78 ± 0.064

MPPKEDWEKYKAPLEDD [RPT1]
protein stability index (doa10∆): 3.21 ± 0.12
protein stability index (pdr5∆): 3.29 ± 0.21
protein stability index (san1∆): 3.38 ± 0.069
protein stability index (ubr1∆): 3.27 ± 0.19

MPVAPTMEVKSFPILDQ [YMR129W/POM152]
protein stability index (doa10∆): 1.36 ± 0.1
protein stability index (pdr5∆): 1.29 ± 0.11
protein stability index (san1∆): 1.2 ± 0.2
protein stability index (ubr1∆): 1.22 ± 0.093

MQRQQQGISGSQQNIVP [SNF2]
protein stability index (doa10∆): 2.91 ± 0.059
protein stability index (pdr5∆): 3.14 ± 0.05
protein stability index (san1∆): 3.19 ± 0.046
protein stability index (ubr1∆): 3.01 ± 0.047

MRNFSKQNQDSKHNERN [YDL088C/ASM4]
protein stability index (doa10∆): 3.01 ± 0.11
protein stability index (pdr5∆): 3.32 ± 0.14
protein stability index (san1∆): 2.46 ± 0.09
protein stability index (ubr1∆): 3.34 ± 0.093

MRQQSKELQQLQKQILT [SMC1]
protein stability index (doa10∆): 3.32 ± 0.13
protein stability index (pdr5∆): 3.05 ± 0.074
protein stability index (san1∆): 3.29 ± 0.039
protein stability index (ubr1∆): 3.17 ± 0.049

MSAQKAPKWYPSEDVAA [RPL6A]
protein stability index (doa10∆): 2.03 ± 0.12
protein stability index (pdr5∆): 2.35 ± 0.13
protein stability index (san1∆): 1.57 ± 0.27
protein stability index (ubr1∆): 2.1 ± 0.071

MSDTEAPVEVQEDFEVV [RPS5]
protein stability index (doa10∆): 3.23 ± 0.1
protein stability index (pdr5∆): 3.24 ± 0.15
protein stability index (san1∆): 3.35 ± 0.078
protein stability index (ubr1∆): 3.09 ± 0.086

MSETLPRSDDLEATWNF [CDC53]
protein stability index (doa10∆): 3.05 ± 0.17
protein stability index (pdr5∆): 3.39 ± 0.15
protein stability index (ubr1∆): 2.81 ± 0.15

MSEVITITKRNGAFQNS [RRP4]
protein stability index (doa10∆): 2.33 ± 0.083
protein stability index (pdr5∆): 2.31 ± 0.076
protein stability index (san1∆): 2.79 ± 0.067
protein stability index (ubr1∆): 2.18 ± 0.059

MSFSSLYKTFFKRNAVF [QCR9]
protein stability index (doa10∆): 1.67 ± 0.066
protein stability index (pdr5∆): 1.33 ± 0.053
protein stability index (san1∆): 1.34 ± 0.091
protein stability index (ubr1∆): 1.32 ± 0.048

MSGGGNHVAKGLMKLGT [SMC4]
protein stability index (pdr5∆): 3.56 ± 0.3

MSISLESSKALADSLDR [DIS3]
protein stability index (doa10∆): 2.53 ± 0.067
protein stability index (pdr5∆): 2.8 ± 0.074
protein stability index (san1∆): 2.52 ± 0.096
protein stability index (ubr1∆): 2.45 ± 0.071

MSKVMKPSNGKGSRKSS [SNF12]
protein stability index (doa10∆): 2.92 ± 0.091
protein stability index (pdr5∆): 3.27 ± 0.11
protein stability index (san1∆): 3.02 ± 0.11
protein stability index (ubr1∆): 3.232 ± 0.029

MSLKDKLLIQIDELSNG [SMC1]
protein stability index (doa10∆): 2.27 ± 0.084
protein stability index (pdr5∆): 2.34 ± 0.11
protein stability index (san1∆): 3.08 ± 0.11
protein stability index (ubr1∆): 2.52 ± 0.1

MSMSSTVIKFRAGVCEY [RPN13]
protein stability index (pdr5∆): 2.58 ± 0.18
protein stability index (san1∆): 2.22 ± 0.13

MSPLECRNILGVTSLIK [RPP1]
protein stability index (doa10∆): 2.23 ± 0.052
protein stability index (pdr5∆): 1.96 ± 0.054
protein stability index (san1∆): 1.84 ± 0.079
protein stability index (ubr1∆): 2.08 ± 0.044

MSPNHGTFGGDGMYSES [FAS2]
protein stability index (doa10∆): 1.87 ± 0.075
protein stability index (pdr5∆): 2.34 ± 0.064
protein stability index (san1∆): 2.8 ± 0.14
protein stability index (ubr1∆): 2.43 ± 0.064

MSSQISSLIPHCITSIT [MTR3]
protein stability index (doa10∆): 1.77 ± 0.061
protein stability index (pdr5∆): 2.08 ± 0.061
protein stability index (san1∆): 2.07 ± 0.073
protein stability index (ubr1∆): 2.47 ± 0.075

MTDRYSFSLTTFSPSGK [PRE8]
protein stability index (pdr5∆): 3.16 ± 0.25

MTKTITVAHIQYDFKAV [RPN14]
protein stability index (doa10∆): 2.42 ± 0.083
protein stability index (pdr5∆): 3.09 ± 0.095
protein stability index (san1∆): 2.4 ± 0.063
protein stability index (ubr1∆): 2.71 ± 0.043

MTMASKSLEVVNADTVG [NSL1]
protein stability index (doa10∆): 2.96 ± 0.078
protein stability index (pdr5∆): 2.82 ± 0.075
protein stability index (san1∆): 2.7 ± 0.068
protein stability index (ubr1∆): 2.38 ± 0.053

MTMNGIPVKLLNEAQGH [SMD3]
protein stability index (doa10∆): 3.2 ± 0.12
protein stability index (pdr5∆): 3.39 ± 0.16
protein stability index (san1∆): 2.76 ± 0.091
protein stability index (ubr1∆): 3.1 ± 0.11

MTRILPQQSRYISFIKD [RPN2]
protein stability index (doa10∆): 2.16 ± 0.057
protein stability index (pdr5∆): 2.6 ± 0.057
protein stability index (san1∆): 1.87 ± 0.067
protein stability index (ubr1∆): 1.92 ± 0.053

MTSIGTGYDLSNSVFSP [PRE10]
protein stability index (doa10∆): 2.77 ± 0.085
protein stability index (pdr5∆): 2.91 ± 0.11
protein stability index (san1∆): 2.23 ± 0.27
protein stability index (ubr1∆): 2.8 ± 0.12

MTTVSGRDAFHLRVRVH [RPL10]
protein stability index (doa10∆): 1.33 ± 0.16

MVKLIVMLCTLTGYQNN [YJL039C/NUP192]
protein stability index (doa10∆): 1.9 ± 0.12
protein stability index (pdr5∆): 1.52 ± 0.075
protein stability index (san1∆): 1.99 ± 0.11
protein stability index (ubr1∆): 1.5 ± 0.095

MVNVPKTRKTYCKGKTC [RPL42A]
protein stability index (doa10∆): 1.42 ± 0.15
protein stability index (pdr5∆): 1.41 ± 0.1
protein stability index (san1∆): 1.99 ± 0.25
protein stability index (ubr1∆): 1.35 ± 0.075

MVTENPQRLTVLRLATN [MCD1]
protein stability index (doa10∆): 2.25 ± 0.069
protein stability index (pdr5∆): 2.32 ± 0.056
protein stability index (san1∆): 2.3 ± 0.062
protein stability index (ubr1∆): 2.38 ± 0.051

MVVQNSPVSSVHTANFS [MED2]
protein stability index (doa10∆): 2.12 ± 0.1
protein stability index (pdr5∆): 2.67 ± 0.075
protein stability index (san1∆): 2.01 ± 0.099
protein stability index (ubr1∆): 2.75 ± 0.054

MYQEWEDETVKVAQLRQ [NSL1]
protein stability index (doa10∆): 3.63 ± 0.085
protein stability index (pdr5∆): 3.47 ± 0.076
protein stability index (san1∆): 3.372 ± 0.032
protein stability index (ubr1∆): 3.5 ± 0.07

NADFQKPWFATVNGQAR [FAS1]
protein stability index (doa10∆): 2.41 ± 0.066
protein stability index (pdr5∆): 2.37 ± 0.11
protein stability index (san1∆): 2.45 ± 0.082
protein stability index (ubr1∆): 2.87 ± 0.1
